Test results published in PMC4617978.
“And” between values parts separate entries of the source, which are not always exact repeats. Identical values can stand only once.

B1: His6-tagged BAKΔTM (BAK lacking its transmembrane domain, residues 1–186) (domain or fragment)
chain: MASGQGPGPPRQECGEPALPSASEEQVAQDTEEVFRSYVFYRHQQEQEAEGVAAPADPEMVTLPLQPSSTMGQVGRQLAIIGDDINRRYDSEFQTMLQHLQPTAENAYEYFTKIATSLFESGINWGRVVALLGFGYRLALHVYQHGLTGFLGQVTRFVVDFMLHHCIARWIAQRGGWVAALNLGNG

Experiments:
[1] = target: His6-tagged BAKΔTM (BAK lacking its transmembrane domain, residues 1–186) (human) (UniProt Q16611); assay: cross-linking
[2] = target: BCLXLΔTM (cleaved by thrombin from GST-BCLXLΔTM); assay: SPR
[3] = target: MCL1ΔTM (cleaved by thrombin from GST-MCL1ΔTM); assay: SPR

Molecule | stoichiometry N [1] | fold less tight binding than BAK BH3 peptide [2] [fold] | fold less tight binding than BAK BH3 peptide [3] [fold]
His6-tagged BAKΔTM (BAK lacking its transmembrane domain, residues 1–186) (from UniProt Q16611 1-186) (domain or fragment) | 2 and 3 |  | 
B1 |  | 100 | 100
